Biological target: NbNRC2-6xHis-3xFLAG, affinity-purified from N. benthamiana leaves (Nicotiana benthamiana)
Assay: SEC; purified NbNRC2-6xHis-3xFLAG on Superdex 200 Increase 10/300 GL, 25 mM Tris-HCl pH 8, 500 mM NaCl, 5% glycerol, 1 mM EDTA, 4°C; size estimated from a protein standard curve

NbNRC2-6xHis-3xFLAG, affinity-purified from N. benthamiana leaves (natural protein)
stoichiometry N: 2

From article PMC11524475
